# Measurements taken from PMC7280502, “Structure and mechanism of the Nap adhesion complex from the human pathogen Mycoplasma genitalium” (Nature Communications, 2020).
# T1: extracellular region of P140 (residues 23–1351) (Mycoplasma genitalium (strain G37), UniProt P20796 23-1351)
# T1 construct: also called extracellular P140; source: E. coli B834 (DE3), purified (Histrap, Superdex 200), same protocol as for P110N
# T1 sequence: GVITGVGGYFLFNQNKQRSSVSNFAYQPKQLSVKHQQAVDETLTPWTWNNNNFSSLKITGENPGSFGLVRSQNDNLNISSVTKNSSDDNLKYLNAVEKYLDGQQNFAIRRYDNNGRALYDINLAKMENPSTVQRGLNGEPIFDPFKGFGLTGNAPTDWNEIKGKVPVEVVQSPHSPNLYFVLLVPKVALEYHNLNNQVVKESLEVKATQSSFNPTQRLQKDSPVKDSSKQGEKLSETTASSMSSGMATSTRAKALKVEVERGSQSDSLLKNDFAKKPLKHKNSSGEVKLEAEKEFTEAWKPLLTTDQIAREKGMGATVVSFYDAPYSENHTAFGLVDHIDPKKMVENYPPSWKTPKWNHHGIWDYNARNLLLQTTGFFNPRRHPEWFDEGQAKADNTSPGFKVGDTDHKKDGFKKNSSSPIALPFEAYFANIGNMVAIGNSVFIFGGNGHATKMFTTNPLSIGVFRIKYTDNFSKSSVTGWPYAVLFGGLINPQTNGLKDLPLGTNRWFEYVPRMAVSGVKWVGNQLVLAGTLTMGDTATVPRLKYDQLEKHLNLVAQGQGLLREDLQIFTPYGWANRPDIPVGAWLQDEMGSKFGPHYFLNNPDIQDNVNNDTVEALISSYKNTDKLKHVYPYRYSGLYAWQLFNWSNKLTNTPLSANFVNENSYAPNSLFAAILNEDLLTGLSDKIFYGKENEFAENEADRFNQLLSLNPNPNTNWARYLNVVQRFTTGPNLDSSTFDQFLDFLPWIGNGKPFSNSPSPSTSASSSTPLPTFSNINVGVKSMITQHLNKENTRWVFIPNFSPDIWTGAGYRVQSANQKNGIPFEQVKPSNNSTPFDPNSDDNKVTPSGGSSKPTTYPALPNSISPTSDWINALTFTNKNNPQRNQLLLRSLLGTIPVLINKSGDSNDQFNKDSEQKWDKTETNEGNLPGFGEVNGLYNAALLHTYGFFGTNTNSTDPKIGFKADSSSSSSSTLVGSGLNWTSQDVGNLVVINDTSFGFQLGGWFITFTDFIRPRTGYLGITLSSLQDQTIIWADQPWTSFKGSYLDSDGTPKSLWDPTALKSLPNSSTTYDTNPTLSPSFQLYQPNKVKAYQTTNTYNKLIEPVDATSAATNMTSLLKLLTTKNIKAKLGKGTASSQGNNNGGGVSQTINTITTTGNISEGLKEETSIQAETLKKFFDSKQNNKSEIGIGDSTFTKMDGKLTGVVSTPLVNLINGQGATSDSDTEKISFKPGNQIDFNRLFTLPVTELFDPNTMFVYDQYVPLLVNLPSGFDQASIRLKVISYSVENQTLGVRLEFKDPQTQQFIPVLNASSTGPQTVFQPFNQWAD
# Tests used:
# [1] = molecular target: P140–P110 heterodimer of the purified Nap complex (full-length proteins, P110His strain) (Mycoplasma genitalium G37 (endogenous) | Mycoplasma genitalium G37) (UniProt P20796); assay: cryo-EM structure; single-particle cryo-EM of the Nap complex purified from the M. genitalium P110His strain in octylglucoside, 25 μg/ml; 9.8 Å; rigid-body fitting of P140 alone and P110 alone; closed conformation
# [2] = molecular target: T1, extracellular region of P140 (residues …); assay: cryo-EM structure; single-particle cryo-EM of the purified P140–P110 heterodimer (complete extracellular regions) at 20 μg/ml; 4.1 Å, non-isotropic; X-ray P140–P110N structure fitted as a rigid body; conditions: both partners purified
# [3] = molecular target: T1, extracellular region of P140 (residues …); assay: crystal structure; P140 and P110N mixed 1:1 and incubated 30 min at room temperature; crystals from 23% PEG 500MME, 4% PGA, 0.1 M sodium cacodylate pH 6.5, 20 °C; space group P2(1), four heterodimers in the asymmetric unit; 2.65 Å; conditions: both partners purified
molecule,measurement,setting,value
"P140–P110 heterodimer of the purified Nap complex (full-length proteins, P110His strain), P20796 59-1444; P22747 26-1053",stoichiometry N,[1],2
"extracellular region of P110 (residues 23–938) (domain or fragment, P110, product of gene MG_192 of Mycoplasma genitalium strain G37, residues 23–938 (complete extracellular region), amplified from a synthetic clone; source: E. coli B834 (DE3), purified (Histrap, Superdex 200), same protocol as for P110N) ALANTFLVKEDSKNVTAYTPFATPITDSKSDLVSLAQLDSSYQIADQTIHNTNLFVLFKSRDVKVKYESSGSNNISFDSTSQGEKPSYVVEFTNSTNIGIKWTMVKKYQLDVPNVSSDMNQVLKNLILEQPLTKYTLNSSLAKEKGKTQREVHLGSGQANQWTSQRNQHDLNNNPSPNASTGFKLTTGNAYRKLSESWPIYEPIDGTKQGKGKDSSGWSSTEENEAKNDAPSVSGGGSSSGTFNKYLNTKQALESIGILFDDQTPRNVITQLYYASTSKLAVTNNHIVVMGNSFLPSMWYWVVERSAQENASNKPTWFANTNLDWGEDKQKQFVENQLGYKETTSTNSHNFHSKSFTQPAYLISGIDSVNDQIIFSGFKAGSVGYDSSSSSSSSSSSSTKDQALAWSTTTSLDSKTGYKDLVTNDTGLNGPINGSFSIQDTFSFVVPYSGNHTNNGTTGPIKTAYPVKKDQKSTVKINSLINATPLNSYGDEGIGVFDALGLNYNFKSNQERLPSRTDQIFVYGIVSPNELRSAKSSADSTGSDTKVNWSNTQSRYLPVPYNYSEGIIDADGFKRPENRGASVTTFSGLKSIAPDGFANSIANFSVGLKAGIDPNPVMSGKKANYGAVVLTRGGVVRLNFNPGNDSLLSTTDNNIAPISFSFTPFTAAESAVDLTTFKEVTYNQESGLWSYIFDSSLKPSHDGKQTPVTDNMGFSVITVSRTGIELNQDQATTTLDVAPSALAVQSGIQSTTQTLTGVLPLSEEFSAVIAKDSDQNKIDIYKNNNGLFEIDTQLSNSVATNNGGLAPSYTENRVDAWGKVEFADNSVLQARNLVDKTVDEIINTPEILNSFFRFTPAFEDQKATLVATKQSDTSLSVSPRIQFLDGNFYDLNSTIAGVPLNIGFPSRVFAGFAALP",binding result,[2],binds
"N-terminal domain of P110 (P110N: residues 23–827) (domain or fragment, P110, product of gene MG_192 of Mycoplasma genitalium strain G37, residues 23–827 (N-terminal domain), amplified from a synthetic clone and cloned into pOPINE; source: E. coli B834 (DE3), purified (Histrap, Superdex 200)) ALANTFLVKEDSKNVTAYTPFATPITDSKSDLVSLAQLDSSYQIADQTIHNTNLFVLFKSRDVKVKYESSGSNNISFDSTSQGEKPSYVVEFTNSTNIGIKWTMVKKYQLDVPNVSSDMNQVLKNLILEQPLTKYTLNSSLAKEKGKTQREVHLGSGQANQWTSQRNQHDLNNNPSPNASTGFKLTTGNAYRKLSESWPIYEPIDGTKQGKGKDSSGWSSTEENEAKNDAPSVSGGGSSSGTFNKYLNTKQALESIGILFDDQTPRNVITQLYYASTSKLAVTNNHIVVMGNSFLPSMWYWVVERSAQENASNKPTWFANTNLDWGEDKQKQFVENQLGYKETTSTNSHNFHSKSFTQPAYLISGIDSVNDQIIFSGFKAGSVGYDSSSSSSSSSSSSTKDQALAWSTTTSLDSKTGYKDLVTNDTGLNGPINGSFSIQDTFSFVVPYSGNHTNNGTTGPIKTAYPVKKDQKSTVKINSLINATPLNSYGDEGIGVFDALGLNYNFKSNQERLPSRTDQIFVYGIVSPNELRSAKSSADSTGSDTKVNWSNTQSRYLPVPYNYSEGIIDADGFKRPENRGASVTTFSGLKSIAPDGFANSIANFSVGLKAGIDPNPVMSGKKANYGAVVLTRGGVVRLNFNPGNDSLLSTTDNNIAPISFSFTPFTAAESAVDLTTFKEVTYNQESGLWSYIFDSSLKPSHDGKQTPVTDNMGFSVITVSRTGIELNQDQATTTLDVAPSALAVQSGIQSTTQTLTGVLPLSEEFSAVIAKDSDQNKIDIYKNNNGLFEIDTQLSNSVATNNGGL",binding result,[3],binds
